Target: the molecule itself
Test: cryo-EM structure

B1: hemagglutinin (HA) spike on spiked nanobicelles (SNB) purified from the Fluad vaccine (natural protein)
chain: not shown
stoichiometry N: 3
